Test results as given in patent publication US8785135B2, “Mutant G-protein coupled receptors and methods for selecting them” (Heptares Therapeutics Limited, priority 2007, dated 2014).
Numbering of substitutions follows the chain as printed. Names may count otherwise.

B1: S362A: NTR point mutant (protein, UniProt P20789 1-424, looked up, variant S362A)
Neurotensin receptor type 1: MHLNSSVPQGTPGEPDAQPFSGPQSEMEATFLALSLSNGSGNTSESDTAGPNSDLDVNTDIYSKVLVTAIYLALFVVGTVGNSVTAFTLARKKSLQSLQSTVHYHLGSLALSDLLILLLAMPVELYNFIWVHHPWAFGDAGCRGYYFLRDACTYATALNVASLSVERYLAICHPFKAKTLMSRSRTKKFISAIWLASALLAIPMLFTMGLQNRSGDGTHPGGLVCTPIVDTATVKVVIQVNTFMSFLFPMLVISILNTVIANKLTVMVHQAAEQGRVCTVGTHNGLEHSTFNMTIEPGRVQALRHGVLVLRAVVIAFVVCWLPYHVRRLMFCYISDEQWTTFLFDFYHYFYMLTNALFYVSAAINPILYNLVSANFRQVFLSTLACLCPGWRHRRKKRPTFSRKPNSMSSNHAFSTSATRETLY
B2: F358A: NTR point mutant (protein, UniProt P20789 1-424, looked up, variant F358A)
Neurotensin receptor type 1: B1 Neurotensin receptor type 1 with F358A, A362S
B3: C386A: NTR point mutant (protein, UniProt P20789 1-424, looked up, variant C386A)
Neurotensin receptor type 1: B1 Neurotensin receptor type 1 with A362S, C386A
B4: W391A: NTR point mutant (protein, UniProt P20789 1-424, looked up, variant W391A)
Neurotensin receptor type 1: B1 Neurotensin receptor type 1 with A362S, W391A
B5: D113A: NTR point mutant (protein, UniProt P20789 1-424, looked up, variant D113A)
Neurotensin receptor type 1: B1 Neurotensin receptor type 1 with D113A, A362S
B6: H393A: NTR point mutant (protein, UniProt P20789 1-424, looked up, variant H393A)
Neurotensin receptor type 1: B1 Neurotensin receptor type 1 with A362S, H393A
B7: R392A: NTR point mutant (protein, UniProt P20789 1-424, looked up, variant R392A)
Neurotensin receptor type 1: B1 Neurotensin receptor type 1 with A362S, R392A
B8: K397A: NTR point mutant (protein, UniProt P20789 1-424, looked up, variant K397A)
Neurotensin receptor type 1: B1 Neurotensin receptor type 1 with A362S, K397A
B9: Y351A: NTR point mutant (protein, UniProt P20789 1-424, looked up, variant Y351A)
Neurotensin receptor type 1: B1 Neurotensin receptor type 1 with Y351A, A362S
B10: A155L: NTR point mutant (protein, UniProt P20789 1-424, looked up, variant A155L)
Neurotensin receptor type 1: B1 Neurotensin receptor type 1 with A155L, A362S
B11: L72A: NTR point mutant (protein, UniProt P20789 1-424, looked up, variant L72A)
Neurotensin receptor type 1: B1 Neurotensin receptor type 1 with L72A, A362S
B12: I116A: NTR point mutant (protein, UniProt P20789 1-424, looked up, variant I116A)
Neurotensin receptor type 1: B1 Neurotensin receptor type 1 with I116A, A362S
B13: V268A: NTR point mutant (protein, UniProt P20789 1-424, looked up, variant V268A)
Neurotensin receptor type 1: B1 Neurotensin receptor type 1 with V268A, A362S
B14: P399A: NTR point mutant (protein, UniProt P20789 1-424, looked up, variant P399A)
Neurotensin receptor type 1: B1 Neurotensin receptor type 1 with A362S, P399A
B15: A120L: NTR point mutant (protein, UniProt P20789 1-424, looked up, variant A120L)
Neurotensin receptor type 1: B1 Neurotensin receptor type 1 with A120L, A362S
B16: G209A: NTR point mutant (protein, UniProt P20789 1-424, looked up, variant G209A)
Neurotensin receptor type 1: B1 Neurotensin receptor type 1 with G209A, A362S
B17: N262A: NTR point mutant (protein, UniProt P20789 1-424, looked up, variant N262A)
Neurotensin receptor type 1: B1 Neurotensin receptor type 1 with N262A, A362S
B18: L109A: NTR point mutant (protein, UniProt P20789 1-424, looked up, variant L109A)
Neurotensin receptor type 1: B1 Neurotensin receptor type 1 with L109A, A362S
B19: S108A: NTR point mutant (protein, UniProt P20789 1-424, looked up, variant S108A)
Neurotensin receptor type 1: B1 Neurotensin receptor type 1 with S108A, A362S
B20: T207A: NTR point mutant (protein, UniProt P20789 1-424, looked up, variant T207A)
Neurotensin receptor type 1: B1 Neurotensin receptor type 1 with T207A, A362S
B21: L205A: NTR point mutant (protein, UniProt P20789 1-424, looked up, variant L205A)
Neurotensin receptor type 1: B1 Neurotensin receptor type 1 with L205A, A362S
B22: F189A: NTR point mutant (protein, UniProt P20789 1-424, looked up, variant F189A)
Neurotensin receptor type 1: B1 Neurotensin receptor type 1 with F189A, A362S
B23: M181A: NTR point mutant (protein, UniProt P20789 1-424, looked up, variant M181A)
Neurotensin receptor type 1: B1 Neurotensin receptor type 1 with M181A, A362S
B24: Nag7m: NTR mutant F358A+A86L+I260A+F342A (protein)
chain: TSESDTAGPNSDLDVNTDIYSKVLVTAIYLALFVVGTVGNSVTLFTLARKKSLQSLQSTVHYHLGSLALSDLLILLLAMPVELYNFIWVHHPWAFGDAGCRGYYFLRDACTYATALNVASLSVERYLAICHPFKAKTLMSRSRTKKFISAIWLASALLAIPMLFTMGLQNRSGDGTHPGGLVCTPIVDTATVKVVIQVNTFMSFLFPMLVISILNTVAANKLTVMVHQAAEQGRVCTVGTHNGLEHSTFNMTIEPGRVQALRHGVLVLRAVVIAFVVCWLPYHVRRLMFCYISDEQWTTALFDFYHYFYMLTNALAYVSSAINPILYNLVSANFRQVFLSTLACLCPGWRHRRKKRPTFSRKPNSMSSNHAFSTSATRETLY
B25: Nag7n: NTR mutant F358A+H103A+I260A+F342A (protein)
chain: B24 chain with L44A, H61A

assay: Thermostability of NTR and mutants (3H-neurotensin binding); format: physicochemical; settings: Ligand(+) format
Method: FIG. 12 Flow chart showing the two different assay formats of ligand (+) and ligand (−) used to determine receptor thermostability.
• 1. 340 site-directed mutants have been made between residues 61-400 of NTR. • 2. Initially, all of these mutants were assayed for thermostability using an assay measuring ^3H-neurotensin (agonist) binding after the heating step. […] Mutants tested for thermostability by heating in the absence of the agonist were re-tested using a slightly different assay where the mutants were heated in the presence of ^3H-neurotensin (Ligand(+) format in FIG. 12). […] All of these also have increased thermostability. • 5. Preferred combinations are • a. Nag7m F358A+A86L+I260A+F342A Tm 51° C. (neurotensin bound) • b. Nag7n F358A+H103A+I260A+F342A Tm 51° C. (neurotensin bound) • Wildtype NTR has a Tm of 35° C. with neurotensin bound.

Question: Which “thermostability, heated in the presence of 3H-neurotensin” value does the source give for B1 here?
Answer: The value was “improved thermostability”.

Question: Which “thermostability, heated in the presence of 3H-neurotensin” value does the source give for B2 here?
Answer: Its value is “improved thermostability”.

same assay, conditions: heated in the absence of the agonist

Question: Which “thermostability, 3H-neurotensin (agonist) binding after the heating step” value (shortened to “thermostability, 3H-neurotensin”) does the source give for B3 here?
Answer: Its value is “small but significant increase in thermostability”.

Question: Which “thermostability, 3H-neurotensin” value does the source give for B4 here?
Answer: The value was “small but significant increase in thermostability”.

Question: For B5, which “thermostability, 3H-neurotensin” value is on record?
Answer: Its value is “small but significant increase in thermostability”.

Question: For B6, which “thermostability, 3H-neurotensin” value is on record?
Answer: Its value is “small but significant increase in thermostability”.

Question: For B7, which “thermostability, 3H-neurotensin” value is on record?
Answer: The value was “small but significant increase in thermostability”.

Question: With B8 as the molecule, how does the “thermostability, 3H-neurotensin” value read?
Answer: The value was “small but significant increase in thermostability”.

Question: For B1, which “thermostability, 3H-neurotensin” value is on record?
Answer: Its value is “small but significant increase in thermostability”.

Question: Which “thermostability, 3H-neurotensin” value does the source give for B9 here?
Answer: The value was “small but significant increase in thermostability”.

Question: For B2, which “thermostability, 3H-neurotensin” value is on record?
Answer: Its value is “small but significant increase in thermostability”.

Question: With B10 as the molecule, how does the “thermostability, 3H-neurotensin” value read?
Answer: Its value is “small but significant increase in thermostability”.

Question: For B11, which “thermostability, 3H-neurotensin” value is on record?
Answer: The value was “small but significant increase in thermostability”.

Question: For B12, which “thermostability, 3H-neurotensin” value is on record?
Answer: Its value is “small but significant increase in thermostability”.

Question: Which “thermostability, 3H-neurotensin” value does the source give for B13 here?
Answer: The value was “small but significant increase in thermostability”.

Question: With B14 as the molecule, how does the “thermostability, 3H-neurotensin” value read?
Answer: Its value is “small but significant increase in thermostability”.

Question: Which “thermostability, 3H-neurotensin” value does the source give for B15 here?
Answer: Its value is “small but significant increase in thermostability”.

Question: For B16, which “thermostability, 3H-neurotensin” value is on record?
Answer: Its value is “small but significant increase in thermostability”.

Question: With B17 as the molecule, how does the “thermostability, 3H-neurotensin” value read?
Answer: Its value is “small but significant increase in thermostability”.

Question: With B18 as the molecule, how does the “thermostability, 3H-neurotensin” value read?
Answer: The value was “small but significant increase in thermostability”.

Question: With B19 as the molecule, how does the “thermostability, 3H-neurotensin” value read?
Answer: Its value is “small but significant increase in thermostability”.

Question: Which “thermostability, 3H-neurotensin” value does the source give for B20 here?
Answer: The value was “small but significant increase in thermostability”.

Question: For B21, which “thermostability, 3H-neurotensin” value is on record?
Answer: Its value is “small but significant increase in thermostability”.

Question: Which “thermostability, 3H-neurotensin” value does the source give for B22 here?
Answer: Its value is “small but significant increase in thermostability”.

Question: For B23, which “thermostability, 3H-neurotensin” value is on record?
Answer: The value was “small but significant increase in thermostability”.

same assay, conditions: neurotensin bound

Question: With B24 as the molecule, how does the Tm read?
Answer: Its Tm is 51 °C.

Question: For B25, which Tm is on record?
Answer: The Tm was 51 °C.
